Laboratory results as given in patent US20200297760A1, “COMPOSITIONS AND METHODS FOR REDUCING IMMUNE RESPONSES AGAINST CHIMERIC ANTIGEN RECEPTORS” (Juno Therapeutics, Inc., priority 2015, published 2020).

Assays:
Conditions in all cases: remark: other sources report otherwise
[1] = biological target: HLA-A*02:01 (human); test: REVEAL MHC-peptide binding assay, recombinant HLA
[2] = biological target: HLA-A*03:01 (human); test: REVEAL MHC-peptide binding assay, recombinant HLA
[3] = biological target: HLA-A*02:01 (recombinant MHC class I molecule) (human); test: REVEAL MHC-peptide binding assay, recombinant MHC, score normalised to positive control = 100
[4] = biological target: HLA-A*03:01 (recombinant MHC class I molecule) (human); test: as above
[5] = biological target: HLA-A*11:01 (recombinant MHC class I molecule) (human); test: REVEAL MHC-peptide binding assay, stabilisation of ternary complex with recombinant MHC
[6] = biological target: HLA-B*08:01 (recombinant MHC class I molecule) (human); test: as above

Binder	In Vitro Score (% of positive control peptide) [1]	In Vitro Score (% of positive control peptide) [2]	further results
IFWVHRGRK	7.1	37.8	–
VAFIIFWVR [Synthetic peptide … (K28R)]	–	–	In Vitro Score (% of positive control peptide) [3]: 1.2; In Vitro Score (% of positive control peptide) [4]: 0.7
IIFWVSRGR	2.6	25.3	–
IIFWVKRGR	1.7	24.3	–
IIFWVKRGS	13.6	16.2	–
AFIIFWVAR	2.2	0.5	–
IIFWVQRGR	5.8	18	–
IFWVARGRK	1	53.7	–
IIFWVHRGR	4.7	30.1	–
VAFIIFWVR [… synthetic peptide K28R (SEQ ID NO: 100)]	–	–	In Vitro Score (% of positive control peptide) [5]: 34.6; In Vitro Score (% of positive control peptide) [6]: 0.1

Second part, led by results:

In Vitro Score (% of positive control peptide) [1]	In Vitro Score (% of positive control peptide) [2]	Binder	further results
0.3	0.3	AFIIFWVHR	–
37.3	0	FIIFWVHRG	–
2.4	10.4	IFWVKRGSK	–
4.5	0.3	AFIIFWVSR	–
3	1.9	WVKRGSKKL	–
82.2	15.9	IIFWVKRGL	–
6.1	36.7	IFWVQRGRK	–
2.4	26.9	IFWVKRGLK	–
1.3	39.2	IFWVSRGRK	–
